Changes are numbered by the printed parent chain.
B1: SRP2900-A11 (antibody, IgG1, V domains shown)
VH: EVQLVESGGGLVQPGGSLRLSCAASGFTITDYVIHWVRQAPGKGLEWVGYIDPSNGYTYYADSVKGRFTISADTSKNTAYLQMNSLRAEDTAVYYCARDDQSFTSPFDYWGQGTLVTVSS
VL: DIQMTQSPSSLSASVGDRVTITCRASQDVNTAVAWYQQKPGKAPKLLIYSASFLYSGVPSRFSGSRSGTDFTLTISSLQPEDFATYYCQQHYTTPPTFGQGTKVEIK
B2: SRP2900-A08 (antibody, IgG1, V domains shown)
VH: EVQLVESGGGLVQPGGSLRLSCAASGFTLTGYWIHWVRQAPGKGLEWVGYIDPYNGATYYADSVKGRFTISADTSKNTAYLQMNSLRAEDTAVYYCARADYYYVDEYWDYWGQGTLVTVSS
VL: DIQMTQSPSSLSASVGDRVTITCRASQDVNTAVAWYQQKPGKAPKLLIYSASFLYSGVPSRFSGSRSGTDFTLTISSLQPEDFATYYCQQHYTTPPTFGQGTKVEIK
B3: SRP2900-B07 (antibody, IgG1, V domains shown)
VH: B2 VH with L29I, T30A, G31D, Y50F, A57Y, Y59G, T74N, Y102H, Y103G
VL: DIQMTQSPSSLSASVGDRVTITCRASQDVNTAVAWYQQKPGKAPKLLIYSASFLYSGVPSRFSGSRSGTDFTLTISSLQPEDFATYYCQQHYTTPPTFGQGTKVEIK
B4: SRP2900-B06 (antibody, IgG1, V domains shown)
VH: B2 VH with L29I, T30P, G31S, Y102H, Y103G
VL: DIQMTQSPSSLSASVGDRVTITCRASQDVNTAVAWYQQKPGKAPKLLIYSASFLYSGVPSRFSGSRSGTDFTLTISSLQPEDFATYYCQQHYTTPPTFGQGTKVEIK
B5: SRP2900-A09 (antibody, IgG1, V domains shown)
VH: B2 VH with L29I, T30A, G31D
VL: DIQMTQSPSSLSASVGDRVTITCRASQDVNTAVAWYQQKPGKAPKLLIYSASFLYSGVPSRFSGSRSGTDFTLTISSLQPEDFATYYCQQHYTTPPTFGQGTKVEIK
B6: SRP2900-B09 (antibody, IgG1, V domains shown)
VH: B2 VH with L29I, T30S, G31Q, Y50F, A57Y, Y59N, K76E
VL: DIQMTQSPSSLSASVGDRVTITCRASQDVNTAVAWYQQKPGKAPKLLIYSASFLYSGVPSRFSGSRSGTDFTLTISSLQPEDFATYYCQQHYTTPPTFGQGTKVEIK
B7: SRP2900-C04 (antibody, IgG1, V domains shown)
VH: B2 VH with L29I, T30V, G31S
VL: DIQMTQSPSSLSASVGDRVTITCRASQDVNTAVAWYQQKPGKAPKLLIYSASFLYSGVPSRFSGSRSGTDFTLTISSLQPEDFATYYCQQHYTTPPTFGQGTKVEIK
B8: SRP2900-C05 (antibody, IgG1, V domains shown)
VH: B2 VH with L29I, T30S, S75P, Y102H, Y103G
VL: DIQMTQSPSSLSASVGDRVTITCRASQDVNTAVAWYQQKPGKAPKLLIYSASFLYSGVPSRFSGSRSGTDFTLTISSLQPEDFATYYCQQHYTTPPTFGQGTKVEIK
B9: SRP2900-B01 (antibody, IgG1, V domains shown)
VH: B2 VH with L29I, T30S, W108L
VL: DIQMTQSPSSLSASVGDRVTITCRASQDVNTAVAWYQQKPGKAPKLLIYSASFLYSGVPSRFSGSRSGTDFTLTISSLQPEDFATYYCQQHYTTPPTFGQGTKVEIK
B10: SRP2900-B04 (antibody, IgG1, V domains shown)
VH: B2 VH with L29I, T30S, G31E, Y50F, A57Y, Y59G, K65R
VL: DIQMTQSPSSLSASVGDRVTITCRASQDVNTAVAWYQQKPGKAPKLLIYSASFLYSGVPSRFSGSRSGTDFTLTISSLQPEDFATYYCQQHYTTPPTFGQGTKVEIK
B11: SRP2900-B11 (antibody, IgG1, V domains shown)
VH: B2 VH with L29I, T30P, G31A, Y54S, A57Y, T74A, V93A, Y102H, Y103G
VL: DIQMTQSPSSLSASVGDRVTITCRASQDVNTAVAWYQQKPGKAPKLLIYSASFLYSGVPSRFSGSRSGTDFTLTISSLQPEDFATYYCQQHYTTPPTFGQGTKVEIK
B12: SRP2900-C02 (antibody, IgG1, V domains shown)
VH: B2 VH with L29I, T30S, G31S
VL: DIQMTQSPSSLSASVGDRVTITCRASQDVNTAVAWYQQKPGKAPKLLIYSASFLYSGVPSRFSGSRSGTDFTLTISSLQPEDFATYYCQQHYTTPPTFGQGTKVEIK
B13: SRP2900-B08 (antibody, IgG1, V domains shown)
VH: B2 VH with L29I, T30P, G31S, A57Y, W108F
VL: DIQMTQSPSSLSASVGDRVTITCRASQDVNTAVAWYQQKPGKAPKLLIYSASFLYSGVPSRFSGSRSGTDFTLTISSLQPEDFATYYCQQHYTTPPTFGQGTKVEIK
B14: SRP2900-B05 (antibody, IgG1, V domains shown)
VH: B2 VH with L29I, T30S, Y103G, Y107F, W108L
VL: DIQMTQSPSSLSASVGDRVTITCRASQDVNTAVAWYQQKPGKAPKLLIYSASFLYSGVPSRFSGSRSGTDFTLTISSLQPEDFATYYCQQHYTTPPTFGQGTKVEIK
B15: SRP2900-B03 (antibody, IgG1, V domains shown)
VH: B2 VH with A23S, L29I, T30A, G31D
VL: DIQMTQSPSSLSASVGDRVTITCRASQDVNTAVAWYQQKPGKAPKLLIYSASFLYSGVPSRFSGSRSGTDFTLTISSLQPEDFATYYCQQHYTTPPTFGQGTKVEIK
B16: SRP2900-B10 (antibody, IgG1, V domains shown)
VH: B2 VH with L29I, T30P, G31A, A57S
VL: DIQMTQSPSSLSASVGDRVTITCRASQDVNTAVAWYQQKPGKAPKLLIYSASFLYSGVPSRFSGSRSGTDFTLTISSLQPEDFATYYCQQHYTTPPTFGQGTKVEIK
B17: SRP2900-B02 (antibody, IgG1, V domains shown)
VH: B2 VH with L11S, L29I, T30S, G31D
VL: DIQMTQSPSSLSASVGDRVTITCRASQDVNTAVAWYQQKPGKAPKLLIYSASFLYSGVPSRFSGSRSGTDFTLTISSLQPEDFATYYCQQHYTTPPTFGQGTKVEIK
B18: SRP2900-C07 (antibody, IgG1, V domains shown)
VH: B2 VH with L29I, T30S, W108F
VL: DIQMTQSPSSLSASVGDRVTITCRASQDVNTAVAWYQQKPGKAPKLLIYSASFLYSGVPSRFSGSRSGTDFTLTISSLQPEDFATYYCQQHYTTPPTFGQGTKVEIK
B19: SRP2900-C10 (antibody, IgG1, V domains shown)
VH: EVQLVESGGGLVQPGGSLRLSCAASGFTISDYWIHWVRQAPGKGLEWVGYIDPYNGYTYYADSVNGRFTISADTSKNTAYLQMNSLRAEDTAVYYCARDYGSYLVSLDYWGQGTLVTVSS
VL: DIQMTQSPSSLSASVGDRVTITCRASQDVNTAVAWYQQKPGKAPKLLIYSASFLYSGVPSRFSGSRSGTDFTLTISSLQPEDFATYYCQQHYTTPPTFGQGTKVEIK
B20: SRP2900-D01 (antibody, IgG1, V domains shown)
VH: B19 VH with S30H, D31E, Y54A, Y57F, N65K, Y103L, L104Q, S106F
VL: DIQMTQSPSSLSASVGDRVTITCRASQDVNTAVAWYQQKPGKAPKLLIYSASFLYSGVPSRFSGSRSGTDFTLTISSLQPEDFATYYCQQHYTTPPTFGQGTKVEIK

Biological target: tissue factor reagent of the Tissue Factor Activity Assay Kit (Abcam #ab108906) (UniProt P13726 33-295, limits assumed)
Assay: cell-based or functional assay

tissue factor reagent of the Tissue Factor Activity Assay Kit (Abcam #ab108906), sequence (P13726 33-295 limits assumed): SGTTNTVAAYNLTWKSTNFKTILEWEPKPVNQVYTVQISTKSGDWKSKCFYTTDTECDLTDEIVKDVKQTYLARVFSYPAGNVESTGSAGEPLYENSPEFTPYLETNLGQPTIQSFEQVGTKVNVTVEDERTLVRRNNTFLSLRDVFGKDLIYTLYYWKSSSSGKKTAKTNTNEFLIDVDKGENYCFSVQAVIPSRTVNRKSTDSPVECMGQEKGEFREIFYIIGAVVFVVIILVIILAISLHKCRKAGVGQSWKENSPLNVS

FX conversion (% inhibition), 1000 nM antibody [%] | Binder
31.7 | B1
41.9 | B2
42.2 | B3
28.2 | B4
46.9 | B5
35 | B6
36.7 | B7
35.7 | B8
38.7 | B9
46.3 | B10
22.4 | B11
29.6 | B12
43.3 | B13
35.5 | B14
44.1 | B15
33.3 | B16
27 | B17
41.6 | B18
42.1 | B19
32.7 | B20
